In article PMC8765430, “MdaB and NfrA, Two Novel Reductases Important in the Survival and Persistence of the Major Enteropathogen Campylobacter jejuni” (Journal of Bacteriology, 2022):
Residue numbers refer to the chain shown, from its start.

How the values were obtained:
[1] = target: T1, MdaB (MdaBhis6) (Campylobacter jejuni, UniProt Q0P880); experiment: NADPH oxidation at […] nm; type: biochemical; conditions: 0.2 mM quinone substrates; 200 μM NADPH; 50 mM Tris-HCl, 100 mM NaCl, 10% DMSO; pH ~7.5; 37°C; anaerobic
T1 construct: gene Cj1545c; recombinant His6-tagged (pET21a+), E. coli BL21(DE3), Ni-NTA

[2] = target: T2, NfrA (NfrAhis6) (Campylobacter jejuni, UniProt Q0P871); experiment: NADPH oxidation at […] nm; type: biochemical; conditions: riboflavin as acceptor; pH ~7.5
T2 construct: gene Cj1555c; recombinant His6-tagged (pET21a+), E. coli BL21(DE3), Ni-NTA

[3] = target: T3, RrpA (Campylobacter jejuni, UniProt Q0P879 1-115); experiment: EMSA; 0.05 ug protein, 50 nM DNA; EMSA: Odyssey infrared EMSA kit, 50 nM probe, 20 ul, 6% gel at 4 C. Footprinting: 10 mM Tris-HCl pH 8.5, 30 mM K-glutamate, 1 mM DTT, 5 mM Mg acetate, 2 mM CaCl2, 0.125 mg/ml BSA, 30% glycerol, 25 C; conditions: protein: recombinant; tags: C-terminal His6 (pET21a); chain copies: 2; label: 5' IRDye 800
T3 sequence: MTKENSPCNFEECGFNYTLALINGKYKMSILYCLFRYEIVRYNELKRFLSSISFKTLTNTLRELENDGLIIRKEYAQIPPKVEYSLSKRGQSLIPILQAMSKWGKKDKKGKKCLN

[4] = target: T4, RrpB (Campylobacter jejuni, UniProt Q0P870 1-110); experiment: EMSA; DTT (higher complex); EMSA: Odyssey infrared EMSA kit, 50 nM probe, 20 ul, 6% gel at 4 C. Footprinting: 10 mM Tris-HCl pH 8.5, 30 mM K-glutamate, 1 mM DTT, 5 mM Mg acetate, 2 mM CaCl2, 0.125 mg/ml BSA, 30% glycerol, 25 C; conditions: protein: recombinant; tags: C-terminal His6 (pET21a); chain copies: 2; label: 5' IRDye 800
T4 sequence: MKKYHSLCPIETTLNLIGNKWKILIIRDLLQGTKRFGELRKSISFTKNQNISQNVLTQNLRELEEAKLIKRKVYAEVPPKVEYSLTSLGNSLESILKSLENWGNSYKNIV

[5] = target: T3, RrpA; experiment: EMSA; EMSA: Odyssey infrared EMSA kit, 50 nM probe, 20 ul, 6% gel at 4 C. Footprinting: 10 mM Tris-HCl pH 8.5, 30 mM K-glutamate, 1 mM DTT, 5 mM Mg acetate, 2 mM CaCl2, 0.125 mg/ml BSA, 30% glycerol, 25 C; conditions: protein: recombinant; tags: C-terminal His6 (pET21a); chain copies: 2
[6] = target: T4, RrpB; experiment: as above; conditions: protein: recombinant; tags: C-terminal His6 (pET21a); chain copies: 2

T2 sequence (Q0P871 entry or part of it): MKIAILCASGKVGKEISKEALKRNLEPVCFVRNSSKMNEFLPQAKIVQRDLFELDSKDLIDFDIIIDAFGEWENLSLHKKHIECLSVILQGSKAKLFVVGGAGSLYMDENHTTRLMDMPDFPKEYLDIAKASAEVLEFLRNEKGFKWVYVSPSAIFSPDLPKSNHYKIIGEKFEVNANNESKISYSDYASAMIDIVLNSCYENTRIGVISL
T1 sequence (Q0P880 entry or part of it): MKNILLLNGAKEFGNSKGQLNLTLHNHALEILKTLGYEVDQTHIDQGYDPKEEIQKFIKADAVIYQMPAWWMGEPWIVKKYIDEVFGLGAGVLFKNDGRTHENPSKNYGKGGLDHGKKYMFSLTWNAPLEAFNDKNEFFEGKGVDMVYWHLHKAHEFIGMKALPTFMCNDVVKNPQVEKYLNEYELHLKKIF

NC(=O)C1=CN([C@@H]2O[C@H](COP(=O)(O)OP(=O)(O)OC[C@H]3O[C@@H](n4cnc5c(N)ncnc54)[C@H](OP(=O)(O)O)[C@@H]3O)[C@@H](O)[C@H]2O)C=CC1 [NADPH]
specific activity [1]: reductase activity of MdaB was determined by monitoring the oxidation of NADPH | specific activity [2]: This was indicative of NfrA’s preference for NADPH over NADH

B1: mdaBprobe (dsDNA)
DNA 1: AAATTTAAAATACTATGTTAATATTGAATCGTATTATAGTAAAAGTT
DNA 2: AACTTTTACTATAATACGATTCAATATTAACATAGTATTTTAAATTT
binding result [3]: binds

B2: rrpAprobe (dsDNA)
DNA 1: GCATAATATCATTTTCAATACAGAAAATAAAGTAATATACTATACTAAAGGAATGTTAAATGA
DNA 2: TCATTTAACATTCCTTTAGTATAGTATATTACTTTATTTTCTGTATTGAAAATGATATTATGC
binding result [3]: binds

B3: nfrAprobe (dsDNA)
DNA 1: TAGATCTTTAATATTTATATAAATGATGATTTTTAGTTCATCTATAATAAAATATTATATCA
DNA 2: TGATATAATATTTTATTATAGATGAACTAAAAATCATCATTTATATAAATATTAAAGATCTA
binding result [4]: binds

B4: rrpBprobe (rrpB WT) (dsDNA)
DNA 1: TTAAAAAATATGTTATAATTTTAAAAAATAAGGATTTATAATGAAAAAATAT
DNA 2: ATATTTTTTCATTATAAATCCTTATTTTTTAAAATTATAACATATTTTTTAA
binding result [4]: binds

B5: rrpA WT (Fig. S1) (dsDNA)
DNA 1: GCATATAATATCATTTTCAATACAGAAAATAAAGTAATATACTATACTAAAGGAATGTTAAATGA
DNA 2: TCATTTAACATTCCTTTAGTATAGTATATTACTTTATTTTCTGTATTGAAAATGATATTATATGC
binding result [5]: binds

B6: rrpA (-1) (dsDNA)
DNA 1: B2 DNA 1 with A39C, C40G, T41A, A42G, T43C
DNA 2: B2 DNA 2 with A21G, T22C, A23T, G24C, T25G
binding result [5]: binds

B7: rrpA (-2) (dsDNA)
DNA 1: GCATAATCGAGCTTTCAATACAGAAAATAAAGTAATATCGAGCACTAAAGGAATGTTAAATGA
DNA 2: TCATTTAACATTCCTTTAGTGCTCGATATTACTTTATTTTCTGTATTGAAAGCTCGATTATGC
binding result [5]: no binding

B8: rrpB (-1) (dsDNA)
DNA 1: B4 DNA 1 with T36C, T37G, A38G, T39A, A40T, A41C
DNA 2: B4 DNA 2 with T12G, T13A, A14T, T15C, A16C, A17G
binding result [6]: binds

B9: rrpB (-2) (dsDNA)
DNA 1: TTAAAAAATATGCGGATCTTTTAAAAAATAAGGATCGGATCTGAAAAAATAT
DNA 2: ATATTTTTTCAGATCCGATCCTTATTTTTTAAAAGATCCGCATATTTTTTAA
binding result [6]: no binding
